# Paper PMC10030575, “The IgV domain of the poliovirus receptor alone is immunosuppressive and binds to its receptors with comparable affinity” (Scientific Reports, 2023)
# Where two headings read alike, the source gives them in different places.
# What was measured:
# Assay in all cases: SPR; Biacore T200; His-tagged receptors captured on an anti-histidine antibody CM5 chip (1-5 ug/mL, 30 uL/min); five concentrations (1:2 serial dilutions) of the PVR-Fc constructs flowed over, single-cycle kinetics; HBS-EP (20 mM HEPES pH 7.4, 150 mM NaCl, 0.005% Tween-20, 3.4 mM EDTA); 1:1 Langmuir model
# [1] = molecular target: T1, recombinant mouse TIGIT-Fc-his (mouse, UniProt P86176 29-148)
# T1 construct: mouse TIGIT (T-cell immunoglobulin and ITIM domain), recombinant; also called mTIGIT-Fc-his; mTIGIT; source: bought: Biolegend (771808)
# T1 sequence (looked up): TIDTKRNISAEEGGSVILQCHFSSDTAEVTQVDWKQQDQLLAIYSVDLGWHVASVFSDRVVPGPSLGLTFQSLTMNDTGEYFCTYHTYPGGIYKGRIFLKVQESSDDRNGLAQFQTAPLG
# [2] = molecular target: T2, recombinant mouse CD226-his (mouse, UniProt Q8K4F0 19-254)
# T2 construct: mouse CD226 (DNAM1), recombinant; also called mCD226-his; mCD226; source: bought: SinoBiological (50232-M08H)
# T2 sequence (looked up): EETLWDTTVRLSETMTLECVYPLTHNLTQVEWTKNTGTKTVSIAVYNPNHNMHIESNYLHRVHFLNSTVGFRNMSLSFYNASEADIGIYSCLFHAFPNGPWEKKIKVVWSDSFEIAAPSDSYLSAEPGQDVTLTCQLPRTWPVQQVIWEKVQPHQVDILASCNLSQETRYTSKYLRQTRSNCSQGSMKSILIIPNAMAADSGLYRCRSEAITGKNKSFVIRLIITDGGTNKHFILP
# [3] = molecular target: T3, recombinant mouse CD96-his (mouse, UniProt Q3U0X8 22-536)
# T3 construct: mouse CD96 (TACTILE), recombinant; also called mCD96-his; mCD96; source: bought: Biolegend (788806)
# T3 sequence (looked up): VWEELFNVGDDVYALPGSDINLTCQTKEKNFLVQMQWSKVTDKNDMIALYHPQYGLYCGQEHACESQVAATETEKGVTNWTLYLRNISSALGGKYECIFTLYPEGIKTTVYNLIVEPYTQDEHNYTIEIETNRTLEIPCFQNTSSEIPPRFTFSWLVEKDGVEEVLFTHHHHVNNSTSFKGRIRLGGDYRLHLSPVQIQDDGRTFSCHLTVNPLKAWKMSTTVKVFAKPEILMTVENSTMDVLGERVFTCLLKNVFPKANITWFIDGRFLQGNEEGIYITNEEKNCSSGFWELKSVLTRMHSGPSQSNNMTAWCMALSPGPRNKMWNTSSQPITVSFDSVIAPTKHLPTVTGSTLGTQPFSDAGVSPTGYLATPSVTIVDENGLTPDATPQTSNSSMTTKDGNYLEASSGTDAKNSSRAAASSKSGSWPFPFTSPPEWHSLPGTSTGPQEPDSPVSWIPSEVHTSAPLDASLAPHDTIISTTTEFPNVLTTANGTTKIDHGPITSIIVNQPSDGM
Molecule,Kd [1] [nM],kon [1] [M⁻¹ s⁻¹],Kd [2] [nM],koff [2] [s⁻¹],kon [2] [M⁻¹ s⁻¹],Kd [3] [nM],koff [3] [s⁻¹],kon [3] [M⁻¹ s⁻¹],Kd ([1]; both partners purified) [nM],koff ([1]; both partners purified) [s⁻¹],kon ([1]; both partners purified) [M⁻¹ s⁻¹],Kd ([2]; both partners purified) [nM],koff ([2]; both partners purified) [s⁻¹],kon ([2]; both partners purified) [M⁻¹ s⁻¹],Kd ([3]; both partners purified) [nM],koff ([3]; both partners purified) [s⁻¹],kon ([3]; both partners purified) [M⁻¹ s⁻¹]
full length PVR-Fc (full-length mouse PVR ECD-Fc) (Fc fusion),2.26,2.25e+07,0.83,0.00651,3.2e+06,4.07,0.00455,1.17e+06,–,–,–,–,–,–,–,–,–
"vdPVR-Fc (IgV-domain PVR-Fc) (Fc fusion, mouse, UniProt Q8K094 29-147, looked up, murine PVR (poliovirus receptor, CD155), IgV domain of the extracellular domain, residues 29-147 of NP_081790.1; An Ig-kappa leader at the 5' end drives secretion; Migrates as a dimer (~94 kDa) without reducing agent; also called minimal murine PVR-Fc fusion construct; source: Expi293F cells, secreted, purified (protein A); not shown: Fc (human IgG1; P01857 residues 100-330; joined by linker …)) DIRVLVPYNSTGVLGGSTTLHCSLTSNENVTITQITWMKKDSGGSHALVAVFHPKKGPNIKEPERVKFLAAQQDLRNASLAISNLSVEDEGIYECQIATFPRGSRSTNAWLKVQARPKN",–,–,–,–,–,–,–,–,2.25,0.0656,2.92e+07,0.69,0.00184,2.67e+06,1.72,0.00286,3.52e+06
